Measured values from US10400022B2, “Neuropilin-1 specific binding peptide, fusion protein fused with same, and use thereof” (AJOU UNIVERSITY INDUSTRY-ACADEMIC COOPERATION FOUNDATION, priority 2015, dated 2019).

Legend:
FaDu cells = assay: Tumor tissue penetration of co-administered doxorubicin (IHC); format: in vivo, Balb/c nude mice; conditions: doxorubicin 10 mg/kg with 2.5 mg/kg PBS, Fc or Fc-TPP11 intravenously, 1 hour
Procedure: In order to examine tumor tissue penetration of a small-molecule drug co-administered with the Fc-TPP11 constructed in the above-described experiment, immunohistochemistry was performed. Specifically, each of Balb/c nude mice was injected subcutaneously with 5×10^6 FaDu cells, and after about 15 days, when the tumor volume reached about 300 to 400 mm^3, 10 mg/kg of the anticancer drug doxorubicin and 2.5 mg/kg of each of PBS, Fc and Fc-TPP11 were injected intravenously into each mouse. At 1 hour after injection, the mouse heart was perfused with PBS and perfused with 4% para-formaldehyde to fix tissue. Next, the tumor tissue was extracted and subjected to immunohistochemistry. The extracted tumor was sectioned to a thickness of 20 μm by a frozen-section method, and the blood vessels were stained with the primary antibody CD31 (BD Pharmingen) and a FITC (green fluorescence)-labeled secondary antibody recognizing the same.
According to the same method as that used for FIG. 18(A), doxorubicin and each of PBS, Fc and Fc-TPP11 were injected intravenously into mice, and the mouse heart was perfused with PBS, and the tumor tissue was extracted. […] Then, the tissue was thawed at 37° C. and centrifuged, and the fluorescence (Excitation 485 nm/emission 528 nm) of the supernatant was measured to quantify the amount of doxorubicin penetrated.

HUVEC cells [1] = assay: Transwell invasion assay of vascular endothelial cells; format: cell-based, human; conditions: VEGF165A 20 ng/ml, 1 μM, 12 hours
Procedure: Additionally, in order to examine the inhibitory activity of Fc-TPP11 against VEGF165A-induced invasion of vascular endothelial cells, a transwell assay was performed. A transwell (Corning Costar, USA) having a polycarbonate membrane with a […] pore size was used. Matrigel (Corning Costar, USA) was coated on the lower layer surface of the filter at a ratio of 1:10 and polymerized for 2 hours under the conditions of 37° C. and 5% CO2, and then 5×10^4 HUVEC cells and each of Fc and Fc-TPP11 (1 μM) were seeded in EBM2 medium in the upper layer well. In addition, EBM2 medium containing VEGF165A (20 ng/ml) was added to the lower layer well. Next, the cells were incubated for 12 hours under the conditions of 37° C. and 5% CO2, and then unmoved cells in the upper layer well were removed with cotton, and the cells were fixed with 4% para-formaldehyde. Then, the cells were stained with crystal violet.

VE-cadherin = assay: Western blot of VE-cadherin in HUVEC; format: cell-based, human; conditions: 10 minutes
Procedure: Specifically, 5×10^5 HUVEC cells were seeded into each well of a 6-well plate and incubated for 24 hours, […] constant Fc region and the selected peptide that binds specifically to NRP1, for 10 minutes, followed by Western blot analysis. After SDS-PAGE, the gel was transferred to a PVDF membrane, and detection was performed using primary antibodies (SantaCruz) that recognize VE-cadherin and β-actin and using HRP-conjugated secondary antibody (SantaCruz), and analysis was performed using ImageQuant LAS4000 mini (GE Healthcare).

HUVEC cells [2] = assay: Tube formation assay in HUVEC; format: cell-based, human; conditions: VEGF165A 20 ng/ml, Fc-TPP11 1 μM, 8 hours
Procedure: VEGF165A is known to […] angiogenesis using NRP1 as a co-receptor. Based on this, as a method capable of observing angiogenesis in vitro, a tube formation assay was performed. In an experimental method, 50 μl of ECMatrix was added to a 96-well plate and polymerized at 37° C. for 2 hours. After 2 hours, HUVEC cells were suspended in EBM2 medium, mixed with VEGF165A (20 ng/ml), Fc or Fc-TPP11 (1 μM), plated on the ECMatrix at a density of 1×10^4 cells per well, and incubated for 8 hours. The incubated cells were imaged with a microscope.

HUVEC cells [3] = assay: Wound healing assay (migration of vascular endothelial cells); format: cell-based, human; conditions: VEGF165A 20 ng/ml, 1 μM, 18 hours
Procedure: In addition to the results obtained in Examples 8(1) and 8(2), in order to examine the inhibitory activity of Fc-TPP11 against VEGF165A-induced migration of vascular endothelial cells, a wound healing assay was performed. In an experimental method, 5×10^5 HUVEC cells were seeded into each well of a 6-well plate, and then incubated in 0.5% serum EBM2 medium containing 1 μg/ml mitomycin c for 1 hour until the cells were saturated (95% or more) in the plate. The dish bottom was linearly rubbed with a yellow tip to make injury lines having a uniform width. Then, the cells were washed with PBS such that the cells were detached from the bottom. After removal of PBS, medium was added slowly to the HUVEC cells. The cells were treated with 0 or 20 ng/ml of VEGF165A, treated with each of Fc and Fc-TPP11 (1 μM), and then incubated under the conditions of 37° C. and 5% CO2. The cells were imaged with a microscope (Primo vert, Carl Zeiss co., Germany) at 0 hour and 18 hours, and the distance between both ends, measured with a computer program (AxioVision LE, Carl Zeiss co., Germany) included in the microscope, was statistically processed.

[4] = tested on: human umbilical vein endothelial cells (HUVECs); assay: Transwell assay of penetration of vascular endothelial cells (dextran-FITC); format: cell-based; conditions: 1 μM for 30 minutes (VEGF165A about 1.3 nM); dextran-FITC fluorescence in lower chamber
Procedure: Specifically, 5×10^4 human umbilical vein endothelial cells (HUVECs) were seeded into the upper chamber of a transwell plate (Corning) and incubated in EGM2 for 3 days under the conditions of 37° C. and 5% CO2. […] Then, 50 μl of dextran-FITC (Sigma) was added to the upper chamber. After 30 minutes, based on the principle according to which the fluorescent substance would be observed when penetration into the vascular endothelial cells was increased, the medium was sampled from the lower chamber and the fluorescence thereof was measured.

Row | Molecule | tumor tissue penetration of doxorubicin (FaDu cells) | invasion activity of vascular endothelial cells (HUVEC cells [1]) | change in VE-cadherin (VE-cadherin) | tube formation (HUVEC cells [2]) | migration activity of vascular endothelial cells (HUVEC cells [3]) | ability to penetrate vascular endothelial cells [4]
1 | COc1cccc2c1C(=O)c1c(O)c3c(c(O)c1C2=O)C[C@@](O)(C(=O)CO)C[C@@H]3O[C@H]1C[C@H](N)[C@H](O)[C@H](C)O1 [doxorubicin] | little or no red fluorescence was observed |  |  |  |  | 
2 | VEGF165A: vascular endothelial cell growth factor-A, NRP1 ligand used as control (protein) APMAEGGGQNHHEVVKFMDVYQRSYCHPIETLVDIFQEYPDEIEYIFKPSCVPLMRCGGCCNDEGLECVPTEESNITMQIMRIKPHQGQHIGEMSFLQHNKCECRPKKDRARQENPCGPCSERRKHLFVQDPQTCKCSCKNTDSRCKARQLELNERTCRCDKPRR |  | increased the invasion activity of vascular endothelial cells | a decrease in VE-cadherin was observed | tube formation increased | increased the migration activity of vascular endothelial cells | had an increased ability to penetrate vascular endothelial cells
